According to paper PMC314469, “Protein Interaction Networks by Proteome Peptide Scanning” (PLoS Biology, 2004):

Tests used:
Assay in all cases: SPOT array
[1] = target: Sho1 SH3 (SHO1_YEAST), P40073
[2] = target: T1, Rvs167 SH3 (RV167_YEAST), P39743
T1 chain: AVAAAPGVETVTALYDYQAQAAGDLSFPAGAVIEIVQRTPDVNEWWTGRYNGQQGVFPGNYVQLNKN

[3] = target: T2, Boi1 SH3 (BOI1_YEAST), P38041
T2 chain: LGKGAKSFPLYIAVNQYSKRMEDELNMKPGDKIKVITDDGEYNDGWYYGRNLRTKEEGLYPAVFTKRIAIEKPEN

[4] = target: T3, Myo5 SH3 (MYO5_YEAST), Q04439
T3 chain: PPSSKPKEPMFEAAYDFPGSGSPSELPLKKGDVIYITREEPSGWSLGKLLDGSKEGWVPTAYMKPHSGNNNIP

[5] = target: T4, Yhr016c SH3 (YSC84_YEAST), P32793
T4 chain: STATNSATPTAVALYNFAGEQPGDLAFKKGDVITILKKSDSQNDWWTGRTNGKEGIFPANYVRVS

[6] = target: T5, Yfr024 SH3 (LSB3_YEAST), P43603
T5 chain: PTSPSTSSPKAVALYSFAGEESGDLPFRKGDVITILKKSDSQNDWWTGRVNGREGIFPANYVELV

[7] = target: T6, Boi2 SH3 (BOI2_YEAST), P39969
T6 chain: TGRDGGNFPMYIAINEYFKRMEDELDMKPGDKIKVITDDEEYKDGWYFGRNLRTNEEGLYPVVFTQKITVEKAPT

Chain of Sho1 SH3 (SHO1_YEAST), P40073 (P40073 295-366): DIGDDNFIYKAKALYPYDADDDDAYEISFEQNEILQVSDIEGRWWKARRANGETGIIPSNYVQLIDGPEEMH

EFLRKHSPKAPATG [YMR021C 127-140]
normalised SPOT signal, Boehringer light units (BLU); mean over the file's lines of this peptide [1]: 91
normalised SPOT signal, Boehringer light units (BLU); mean over the file's lines of this peptide [2]: 126
normalised SPOT signal, Boehringer light units (BLU); mean over the file's lines of this peptide [3]: 620
normalised SPOT signal, Boehringer light units (BLU); mean over the file's lines of this peptide [4]: 413
normalised SPOT signal, Boehringer light units (BLU); mean over the file's lines of this peptide [5]: 13.2
normalised SPOT signal, Boehringer light units (BLU); mean over the file's lines of this peptide [6]: 227
normalised SPOT signal, Boehringer light units (BLU); mean over the file's lines of this peptide [7]: 37.3

EFTTREGPHQPIGN [YDR123C 192-205]
normalised SPOT signal, Boehringer light units (BLU); mean over the file's lines of this peptide [1]: 43.5
normalised SPOT signal, Boehringer light units (BLU); mean over the file's lines of this peptide [2]: 29.4
normalised SPOT signal, Boehringer light units (BLU); mean over the file's lines of this peptide [3]: 268
normalised SPOT signal, Boehringer light units (BLU); mean over the file's lines of this peptide [4]: 79.8
normalised SPOT signal, Boehringer light units (BLU); mean over the file's lines of this peptide [5]: 34.5
normalised SPOT signal, Boehringer light units (BLU); mean over the file's lines of this peptide [6]: 9.9
normalised SPOT signal, Boehringer light units (BLU); mean over the file's lines of this peptide [7]: 0

EFQSKSSPVPPASE [YDR008C 96-109]
normalised SPOT signal, Boehringer light units (BLU); mean over the file's lines of this peptide [1]: 34.9
normalised SPOT signal, Boehringer light units (BLU); mean over the file's lines of this peptide [2]: 83.5
normalised SPOT signal, Boehringer light units (BLU); mean over the file's lines of this peptide [3]: 1430
normalised SPOT signal, Boehringer light units (BLU); mean over the file's lines of this peptide [4]: 78.8
normalised SPOT signal, Boehringer light units (BLU); mean over the file's lines of this peptide [5]: 49.9
normalised SPOT signal, Boehringer light units (BLU); mean over the file's lines of this peptide [6]: 7.3
normalised SPOT signal, Boehringer light units (BLU); mean over the file's lines of this peptide [7]: 26.5

EKESRHYPIKPPSP [YMR147W 121-134]
normalised SPOT signal, Boehringer light units (BLU); mean over the file's lines of this peptide [1]: 44.6
normalised SPOT signal, Boehringer light units (BLU); mean over the file's lines of this peptide [2]: 72.2
normalised SPOT signal, Boehringer light units (BLU); mean over the file's lines of this peptide [3]: 64.2
normalised SPOT signal, Boehringer light units (BLU); mean over the file's lines of this peptide [4]: 180
normalised SPOT signal, Boehringer light units (BLU); mean over the file's lines of this peptide [5]: 39.7
normalised SPOT signal, Boehringer light units (BLU); mean over the file's lines of this peptide [6]: 31.6
normalised SPOT signal, Boehringer light units (BLU); mean over the file's lines of this peptide [7]: 20.2

EKLIKITPDTPFGF [YOR340C 102-115]
normalised SPOT signal, Boehringer light units (BLU); mean over the file's lines of this peptide [1]: 36.8
normalised SPOT signal, Boehringer light units (BLU); mean over the file's lines of this peptide [2]: 46.5
normalised SPOT signal, Boehringer light units (BLU); mean over the file's lines of this peptide [3]: 0
normalised SPOT signal, Boehringer light units (BLU); mean over the file's lines of this peptide [4]: 206
normalised SPOT signal, Boehringer light units (BLU); mean over the file's lines of this peptide [5]: 34.6
normalised SPOT signal, Boehringer light units (BLU); mean over the file's lines of this peptide [6]: 61.9
normalised SPOT signal, Boehringer light units (BLU); mean over the file's lines of this peptide [7]: 19.1

EIKDRDQPAVPPSP [YOL047C 317-330]
normalised SPOT signal, Boehringer light units (BLU); mean over the file's lines of this peptide [1]: 20.2
normalised SPOT signal, Boehringer light units (BLU); mean over the file's lines of this peptide [2]: 67.9
normalised SPOT signal, Boehringer light units (BLU); mean over the file's lines of this peptide [3]: 5.1
normalised SPOT signal, Boehringer light units (BLU); mean over the file's lines of this peptide [4]: 108
normalised SPOT signal, Boehringer light units (BLU); mean over the file's lines of this peptide [5]: -0
normalised SPOT signal, Boehringer light units (BLU); mean over the file's lines of this peptide [6]: 8.7
normalised SPOT signal, Boehringer light units (BLU); mean over the file's lines of this peptide [7]: 20.6

EKNARGIPQAPFIE [YGR078C 9-22]
normalised SPOT signal, Boehringer light units (BLU); mean over the file's lines of this peptide [1]: 24.1
normalised SPOT signal, Boehringer light units (BLU); mean over the file's lines of this peptide [2]: 33.4
normalised SPOT signal, Boehringer light units (BLU); mean over the file's lines of this peptide [3]: 48.1
normalised SPOT signal, Boehringer light units (BLU); mean over the file's lines of this peptide [4]: 136
normalised SPOT signal, Boehringer light units (BLU); mean over the file's lines of this peptide [5]: 42.5
normalised SPOT signal, Boehringer light units (BLU); mean over the file's lines of this peptide [6]: 202
normalised SPOT signal, Boehringer light units (BLU); mean over the file's lines of this peptide [7]: 10.5

EKVFRGDPEHPAIS [YJR010W 130-143]
normalised SPOT signal, Boehringer light units (BLU); mean over the file's lines of this peptide [1]: 75.6
normalised SPOT signal, Boehringer light units (BLU); mean over the file's lines of this peptide [2]: 66.3
normalised SPOT signal, Boehringer light units (BLU); mean over the file's lines of this peptide [3]: 17400
normalised SPOT signal, Boehringer light units (BLU); mean over the file's lines of this peptide [4]: 90
normalised SPOT signal, Boehringer light units (BLU); mean over the file's lines of this peptide [5]: 67.9
normalised SPOT signal, Boehringer light units (BLU); mean over the file's lines of this peptide [6]: 48.5
normalised SPOT signal, Boehringer light units (BLU); mean over the file's lines of this peptide [7]: 15.1

EFPGKKSPRLPHRN [YPR097W 343-356]
normalised SPOT signal, Boehringer light units (BLU); mean over the file's lines of this peptide [1]: 71.6
normalised SPOT signal, Boehringer light units (BLU); mean over the file's lines of this peptide [2]: 3000
normalised SPOT signal, Boehringer light units (BLU); mean over the file's lines of this peptide [3]: 1090
normalised SPOT signal, Boehringer light units (BLU); mean over the file's lines of this peptide [4]: 368
normalised SPOT signal, Boehringer light units (BLU); mean over the file's lines of this peptide [5]: 7160
normalised SPOT signal, Boehringer light units (BLU); mean over the file's lines of this peptide [6]: 8340
normalised SPOT signal, Boehringer light units (BLU); mean over the file's lines of this peptide [7]: 42.9

EGRSRLFPHSPLGR [YGL122C 259-272]
normalised SPOT signal, Boehringer light units (BLU); mean over the file's lines of this peptide [1]: 41.4
normalised SPOT signal, Boehringer light units (BLU); mean over the file's lines of this peptide [2]: 393
normalised SPOT signal, Boehringer light units (BLU); mean over the file's lines of this peptide [3]: 14900
normalised SPOT signal, Boehringer light units (BLU); mean over the file's lines of this peptide [4]: 141
normalised SPOT signal, Boehringer light units (BLU); mean over the file's lines of this peptide [5]: 90.9
normalised SPOT signal, Boehringer light units (BLU); mean over the file's lines of this peptide [6]: 2220
normalised SPOT signal, Boehringer light units (BLU); mean over the file's lines of this peptide [7]: 165

EKELKEGPSSPASI [YJL076W 376-389]
normalised SPOT signal, Boehringer light units (BLU); mean over the file's lines of this peptide [1]: 61.7
normalised SPOT signal, Boehringer light units (BLU); mean over the file's lines of this peptide [2]: 41.1
normalised SPOT signal, Boehringer light units (BLU); mean over the file's lines of this peptide [3]: 46.3
normalised SPOT signal, Boehringer light units (BLU); mean over the file's lines of this peptide [4]: 208
normalised SPOT signal, Boehringer light units (BLU); mean over the file's lines of this peptide [5]: 28.2
normalised SPOT signal, Boehringer light units (BLU); mean over the file's lines of this peptide [6]: 0
normalised SPOT signal, Boehringer light units (BLU); mean over the file's lines of this peptide [7]: 13.1

EIPSKDHPYDPEKD [YGR020C 93-106]
normalised SPOT signal, Boehringer light units (BLU); mean over the file's lines of this peptide [1]: 31.1
normalised SPOT signal, Boehringer light units (BLU); mean over the file's lines of this peptide [2]: 0
normalised SPOT signal, Boehringer light units (BLU); mean over the file's lines of this peptide [3]: 51.8
normalised SPOT signal, Boehringer light units (BLU); mean over the file's lines of this peptide [4]: 51.8
normalised SPOT signal, Boehringer light units (BLU); mean over the file's lines of this peptide [5]: 6
normalised SPOT signal, Boehringer light units (BLU); mean over the file's lines of this peptide [6]: 0
normalised SPOT signal, Boehringer light units (BLU); mean over the file's lines of this peptide [7]: 7.3

EKEAKSEPQQPEDN [YML010W 68-81]
normalised SPOT signal, Boehringer light units (BLU); mean over the file's lines of this peptide [1]: 53.3
normalised SPOT signal, Boehringer light units (BLU); mean over the file's lines of this peptide [2]: 19.4
normalised SPOT signal, Boehringer light units (BLU); mean over the file's lines of this peptide [3]: 22.6
normalised SPOT signal, Boehringer light units (BLU); mean over the file's lines of this peptide [4]: 139
normalised SPOT signal, Boehringer light units (BLU); mean over the file's lines of this peptide [5]: 8.8
normalised SPOT signal, Boehringer light units (BLU); mean over the file's lines of this peptide [6]: -0
normalised SPOT signal, Boehringer light units (BLU); mean over the file's lines of this peptide [7]: 17.9

EGTTKVDPIIPVPE [YJR122W 96-109]
normalised SPOT signal, Boehringer light units (BLU); mean over the file's lines of this peptide [1]: 70.4
normalised SPOT signal, Boehringer light units (BLU); mean over the file's lines of this peptide [2]: 53.1
normalised SPOT signal, Boehringer light units (BLU); mean over the file's lines of this peptide [3]: 57.3
normalised SPOT signal, Boehringer light units (BLU); mean over the file's lines of this peptide [4]: 180
normalised SPOT signal, Boehringer light units (BLU); mean over the file's lines of this peptide [5]: 0
normalised SPOT signal, Boehringer light units (BLU); mean over the file's lines of this peptide [6]: 0
normalised SPOT signal, Boehringer light units (BLU); mean over the file's lines of this peptide [7]: 1.6

EIAKRLQPGSPVLG [YHR047C 776-789]
normalised SPOT signal, Boehringer light units (BLU); mean over the file's lines of this peptide [1]: 22
normalised SPOT signal, Boehringer light units (BLU); mean over the file's lines of this peptide [2]: 116
normalised SPOT signal, Boehringer light units (BLU); mean over the file's lines of this peptide [3]: 26.9
normalised SPOT signal, Boehringer light units (BLU); mean over the file's lines of this peptide [4]: 172
normalised SPOT signal, Boehringer light units (BLU); mean over the file's lines of this peptide [5]: 58.7
normalised SPOT signal, Boehringer light units (BLU); mean over the file's lines of this peptide [6]: 126
normalised SPOT signal, Boehringer light units (BLU); mean over the file's lines of this peptide [7]: 8.9

EHLQKERPKPPNKG [YOR233W 329-342]
normalised SPOT signal, Boehringer light units (BLU); mean over the file's lines of this peptide [1]: 54.5
normalised SPOT signal, Boehringer light units (BLU); mean over the file's lines of this peptide [2]: 112
normalised SPOT signal, Boehringer light units (BLU); mean over the file's lines of this peptide [3]: 744
normalised SPOT signal, Boehringer light units (BLU); mean over the file's lines of this peptide [4]: 364
normalised SPOT signal, Boehringer light units (BLU); mean over the file's lines of this peptide [5]: 55.1
normalised SPOT signal, Boehringer light units (BLU); mean over the file's lines of this peptide [6]: 824
normalised SPOT signal, Boehringer light units (BLU); mean over the file's lines of this peptide [7]: 29.7
